Data published in patent US20110177600A1 (published 2011).

B1: anti-diphtheria toxin antibody expressed in DG44 cells (antibody, human IgG1, kappa, V domains shown)
VH: EVQLVESGGGLVKPGGSLRLSCEASGFIFSDYYMSWIRQAPGKGLEWISYISPSGSTLYYADSMRGRFTISRDNAKNSLYLQMNSLRVEDTAVYFCAREYPTTSKVAITPNWFDLWGQGTLVTVSS
VL: ETTLTQSPATLSLSPGERATLSCRASQSVSTFLAWYQQKPGQAPRLLIYDASNRATGIPARFSGSGSGTDFTLTISSLEPEDFAVYYCQQRNIWPSFGGGTKVDIKR
B2: anti-diphtheria toxin antibody expressed in PER.C6 cells (antibody, human IgG1, kappa, V domains shown)
VH: B1 VH
VL: B1 VL

Molecular target: diphtheria toxin (UniProt P00588 33-567)
Assay: cell-based or functional assay

Sequence of diphtheria toxin (P00588 33-567 limits assumed): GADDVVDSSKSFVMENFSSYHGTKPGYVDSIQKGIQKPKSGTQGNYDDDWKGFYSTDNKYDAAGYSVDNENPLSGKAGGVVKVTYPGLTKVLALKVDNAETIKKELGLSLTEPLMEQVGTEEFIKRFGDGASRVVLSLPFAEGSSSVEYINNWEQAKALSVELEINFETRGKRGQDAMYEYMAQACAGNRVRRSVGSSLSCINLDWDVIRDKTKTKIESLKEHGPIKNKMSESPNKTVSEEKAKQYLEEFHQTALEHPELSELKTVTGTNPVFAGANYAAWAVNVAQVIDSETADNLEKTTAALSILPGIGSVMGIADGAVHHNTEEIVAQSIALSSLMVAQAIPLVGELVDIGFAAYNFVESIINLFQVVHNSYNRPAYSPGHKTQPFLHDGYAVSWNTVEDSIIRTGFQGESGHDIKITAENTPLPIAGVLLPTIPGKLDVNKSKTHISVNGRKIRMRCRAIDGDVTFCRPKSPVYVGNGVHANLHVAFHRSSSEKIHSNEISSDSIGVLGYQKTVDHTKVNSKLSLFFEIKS

| Binder | EC50 for protecting Jurkat cells from killing by diphtheria toxin (3H-thymidine incorporation) [ng/mL] |
| --- | --- |
| B1 | 8 |
| B2 | 11 |
